Columns and labels:
Cynomolgus monkey gp130 = target: T1, Cynomolgus monkey gp130 (cynomolgus monkey, UniProt P40189 23-619 (human entry), limits assumed); assay: SPR Biacore 8K+, 37 C; mAb-4894 captured by anti-Fab, antigen as analyte; 1:1 Langmuir fit
T1 construct: Soluble SPR analyte; also called Cyno GP130; cyGP130
T1 chain: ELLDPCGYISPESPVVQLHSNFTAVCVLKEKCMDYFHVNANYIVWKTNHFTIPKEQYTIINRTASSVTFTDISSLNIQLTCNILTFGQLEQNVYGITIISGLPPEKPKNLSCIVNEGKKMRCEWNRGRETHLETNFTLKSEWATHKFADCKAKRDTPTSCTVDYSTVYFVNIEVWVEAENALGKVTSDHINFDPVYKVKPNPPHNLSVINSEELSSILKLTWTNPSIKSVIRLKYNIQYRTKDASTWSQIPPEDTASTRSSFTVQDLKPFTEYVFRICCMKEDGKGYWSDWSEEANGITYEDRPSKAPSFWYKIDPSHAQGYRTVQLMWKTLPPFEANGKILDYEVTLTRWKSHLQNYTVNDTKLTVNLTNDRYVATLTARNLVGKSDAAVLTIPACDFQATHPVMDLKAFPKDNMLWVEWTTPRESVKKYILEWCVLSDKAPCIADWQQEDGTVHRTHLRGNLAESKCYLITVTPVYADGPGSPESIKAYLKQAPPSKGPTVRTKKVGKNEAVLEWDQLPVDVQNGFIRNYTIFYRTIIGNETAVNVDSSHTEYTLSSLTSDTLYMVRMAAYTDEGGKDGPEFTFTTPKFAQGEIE
Protocol: The crossreactivity of mAb-4894 to human and cynomolgus monkey antigens, gp130 (human—SEQ ID NO: 45, cynomolgus—SEQ ID No: 46) and IL27RA (human—SEQ ID NO: 41, cynomolgus—SEQ ID No: 42), was measured by surface plasmon resonance by anti-FAB capture of mAb-4894 (containing arms of anti-IL27RA-4880 EE and anti-gp130-4875 RR) on a biacore chip. Human or cynomolgus monkey IL27RA or gp130 was flowed over the chip and on and off rates were determined, and the affinity constants calculated.
Flow cell 1 for each channel was used as a reference flow cell. After antibody capture, three-fold dilution series of cytokines with concentrations ranging from 405 nM to 15 nM for huGP130 and cyGP130 and 45 nM to 1.67 nM for huIL27R and cyIL27R or HBS-EP+ buffer were injected over the sensor surface for 60 seconds at 50 μl/minute. The dissociation was monitored for 600 seconds and the surface was regenerated with 2 injections of 10 mM Glycine pH 1.7 at 30 μl/minute. The data was double referenced (Myszka, D., J. Mol. Recognit 1999; 279-284). Binding affinities and rate constants were determined for human and cyno GP130 and IL27R by fitting the resulting sensorgram data to a 1:1 Langmuir model in BIAcore Insight Evaluation software version 3.0.12.15655 (Cytiva).

[1] = target: T2, human IL27 receptor (IL27RA/gp130 heterodimer) on human cells (human, UniProt Q6UWB1 33-636; P40189 23-918); assay: cell-based or functional assay
[2] = target: T3, cynomolgus IL27 receptor (IL27RA/gp130 heterodimer) on cynomolgus T cells (cynomolgus monkey); assay: cell-based or functional assay
T3 chain 1: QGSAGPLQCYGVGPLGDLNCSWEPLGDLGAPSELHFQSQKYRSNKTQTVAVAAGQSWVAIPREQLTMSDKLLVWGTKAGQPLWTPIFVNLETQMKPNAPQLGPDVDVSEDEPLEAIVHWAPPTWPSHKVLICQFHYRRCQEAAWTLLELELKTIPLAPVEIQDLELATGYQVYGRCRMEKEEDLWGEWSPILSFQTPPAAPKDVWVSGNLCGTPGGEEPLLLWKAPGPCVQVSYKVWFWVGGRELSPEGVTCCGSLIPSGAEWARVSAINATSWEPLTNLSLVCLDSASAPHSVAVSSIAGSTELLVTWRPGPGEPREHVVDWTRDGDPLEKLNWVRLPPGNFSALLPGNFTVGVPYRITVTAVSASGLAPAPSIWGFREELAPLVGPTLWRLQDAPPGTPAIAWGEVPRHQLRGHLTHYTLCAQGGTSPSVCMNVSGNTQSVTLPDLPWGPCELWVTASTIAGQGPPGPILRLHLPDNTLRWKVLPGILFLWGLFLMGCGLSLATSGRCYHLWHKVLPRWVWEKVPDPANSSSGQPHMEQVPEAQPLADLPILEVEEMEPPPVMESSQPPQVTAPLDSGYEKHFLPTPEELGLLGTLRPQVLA
T3 chain 2: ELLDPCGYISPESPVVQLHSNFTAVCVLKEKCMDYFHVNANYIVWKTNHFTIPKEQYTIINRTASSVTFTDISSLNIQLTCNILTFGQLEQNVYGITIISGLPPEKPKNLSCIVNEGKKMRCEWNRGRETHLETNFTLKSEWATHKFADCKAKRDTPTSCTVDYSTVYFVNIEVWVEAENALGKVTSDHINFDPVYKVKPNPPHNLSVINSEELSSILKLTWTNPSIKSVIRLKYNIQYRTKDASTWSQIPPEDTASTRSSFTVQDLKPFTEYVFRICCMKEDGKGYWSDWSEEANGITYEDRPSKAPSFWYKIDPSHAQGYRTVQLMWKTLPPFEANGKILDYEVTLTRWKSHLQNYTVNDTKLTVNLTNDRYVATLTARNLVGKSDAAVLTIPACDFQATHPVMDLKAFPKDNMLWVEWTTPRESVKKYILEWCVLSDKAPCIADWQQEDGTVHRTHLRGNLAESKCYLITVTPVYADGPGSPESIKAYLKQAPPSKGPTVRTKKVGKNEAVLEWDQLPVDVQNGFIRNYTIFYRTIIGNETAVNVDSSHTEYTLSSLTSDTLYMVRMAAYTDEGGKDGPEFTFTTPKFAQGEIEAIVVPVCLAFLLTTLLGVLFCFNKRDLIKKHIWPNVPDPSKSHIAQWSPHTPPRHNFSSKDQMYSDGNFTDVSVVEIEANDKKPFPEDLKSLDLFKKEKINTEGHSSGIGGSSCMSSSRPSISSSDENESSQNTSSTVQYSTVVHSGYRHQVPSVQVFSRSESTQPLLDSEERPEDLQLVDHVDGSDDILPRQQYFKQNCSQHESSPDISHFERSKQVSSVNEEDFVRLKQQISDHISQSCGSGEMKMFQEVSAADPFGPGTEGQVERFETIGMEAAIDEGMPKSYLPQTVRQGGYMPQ

[3] = target: T2, human IL27 receptor (IL27RA/gp130 …); assay: cell-based or functional assay; remark: listed apart in the source

B1: mAb-4894 anti-IL27RA/gp130 bispecific antibody (bispecific antibody, human IgG1)
heavy 1: EVQLVESGGGLVQPGGSLRLSCAASGFTFEYFGLQWVRQAPGKGLEWIGYTSSGGNYEYYEETLKGRFTISRDNAKNSLYLQMNSLRAEDTAVYYCARTKTGDYWGQGTLVTVSSASTKGPSVFPLAPSSKSTSGGTAALGCLVKDYFPEPVTVSWNSGALTSGVHTFPAVLQSSGLYSLSSVVTVPSSSLGTQTYICNVNHKPSNTKVDKKVEPKSCEKTHTCPPCPAPEAAGAPSVFLFPPKPKDTLMISRTPEVTCVVVDVSHEDPEVKFNWYVDGVEVHNAKTKPREEQYNSTYRVVSVLTVLHQDWLNGKEYKCKVSNKALPAPIEKTISKAKGQPREPQVYTLPPSREEMTKNQVSLTCEVKGFYPSDIAVEWESNGQPENNYKTTPPVLDSDGSFFLYSKLTVDKSRWQQGNVFSCSVMHEALHNHYTQKSLSLSPGK
light 1: DIQMTQSPSSLSASVGDRVTITCRASQDIGNSLTWYQQKPGKAPKRVIFGATGLAAGVPSRFSGSGSGTDFTLTISSLQPEDFATYYCLQSKQYPYTFGQGTKLEIKRTVAAPSVFIFPPSDEQLKSGTASVVCLLNNFYPREAKVQWKVDNALQSGNSQESVTEQDSKDSTYSLSSTLTLSKADYEKHKVYACEVTHQGLSSPVTKSFNRGEC
heavy 2: QVQLVQSGAEVKKPGSSVKVSCKVSGGSISSYYWSWVRQAPGQGLEWIGRIYITGNTNYNPSLKDRVTMTVDTSTSTHYMELSSLRSEDTAVYYCAREGPKLGIFDYWGQGTLVTVSSASTKGPSVFPLAPSSKSTSGGTAALGCLVKDYFPEPVTVSWNSGALTSGVHTFPAVLQSSGLYSLSSVVTVPSSSLGTQTYICNVNHKPSNTKVDKKVEPKSCRKTHTCPPCPAPEAAGAPSVFLFPPKPKDTLMISRTPEVTCVVVDVSHEDPEVKFNWYVDGVEVHNAKTKPREEQYNSTYRVVSVLTVLHQDWLNGKEYKCKVSNKALPAPIEKTISKAKGQPREPQVYTLPPSREEMTKNQVSLTCLVKGFYPSDIAVEWESNGQPENNYKTTPPVLDSDGSFFLYSRLTVDKSRWQQGNVFSCSVMHEALHNHYTQKSLSLSPGK
light 2: DIQMTQSPSSLSASVGDRVTITCRASQSVSSSYLAWYQQKPGKAPKLLIYGTESRATGVPSRFSGSGSGTDFTLTISSLQPEDFATYYCQQYGGYPTFGGGTKVEIKRTVAAPSVFIFPPSDEQLKSGTASVVCLLNNFYPREAKVQWKVDNALQSGNSQESVTEQDSKDSTYSLSSTLTLSKADYEKHKVYACEVTHQGLSSPVTKSFNRGEC
notes: Human IgG1 EE/RR heterodimer with L234A, L235A, G237A (EU); also called GBT-IL27R-4894; GBT-IL-27R-4894
Cynomolgus monkey gp130
  Kd: 188 nM
  koff: 0.0403 s⁻¹
  kon: 215000 M⁻¹ s⁻¹
[1]
  IDO1 mRNA expression in primary cultured human colonocytes, average EC50: 20 nM
  pSTAT1 in CD3+ T cells from human whole blood, average EC50: 0.43 nM
  pSTAT3 in CD3+ T cells from human whole blood, average EC50: 0.23 nM
[2]
  T Cell pSTAT1 EC50 (cynomolgus whole blood, CD3+ T cells, flow cytometry): 1.74 nM
  T Cell pSTAT3 EC50 (cynomolgus whole blood, CD3+ T cells, flow cytometry): 1.17 nM
[3]
  Monocyte IDO1 EC50 (human PBMC, CD14+ monocytes, flow cytometry): 0.005 nM
  Monocyte PD-L1 EC50 (human whole blood, flow cytometry): 0.002 nM
  Primary Colonocytes IDO1 activity EC50 (kynurenine by LC-MS): 5.4 nM
  T Cell pSTAT1 EC50 (human whole blood, CD3+ T cells, flow cytometry): 0.4 nM
  T Cell pSTAT3 EC50 (human whole blood, CD3+ T cells, flow cytometry): 0.2 nM

Source: patent US20240052047A1 (Pfizer, published 2024)
